From paper PMC10745693 come the findings set out here.

Like-named read-outs stand apart in the source and are kept apart here.

For assay [1], the target named is light-harvesting complex II (LHCII) trimer (spinach).
For assay [2] the target is unchanged. This is another data set of the same source.

With “light-harvesting complex II (LHCII) trimer”, the pairwise LHCII-LHCII interaction energy J in assay [1] is -5.4 kBT; in assay [2] it was -7.2 kBT.
